Measured values from the Immune Epitope Database (IEDB).
pIC50: −log10 of the molar value.

Molecular target: HLA-A*02:01
Assay: IEDB peptide-MHC binding, purified MHC/competitive/radioactivity; ≥ and ≤ were set here for values at or beyond the usual limits of such assays
[1] = source organism: Vaccinia virus WR
[2] = source organism: Mammarenavirus choriomeningitidis
[3] = source organism: Mammarenavirus brazilense
[4] = source organism: Mammarenavirus lassaense
[5] = source organism: Influenza A virus
[6] = source organism: Mammarenavirus whitewaterense

Sequence VLSNTSTAV has a pIC50 [1] of 7.80.

In the case of ILAIIFLVL, the pIC50 [1] was 6.88.

Sequence SLNQTVHSL has a pIC50 [2] of 7.28.

FLLRSIIVA was tested, and the pIC50 [1] was 8.51.

In the case of LLVQRVTSV, the pIC50 [1] was 8.51.

For GLIACLIFV, the pIC50 [1] was 8.11.

QLEHGSCQPV gave a pIC50 [1] of 7.80.

EILGIAHLL showed a pIC50 [1] of 5.36.

Sequence GQLFSFFEEV has a pIC50 [3] of 7.48.

With VVVPIKFIA the pIC50 [1] was 5.55.

ALLVATDPDA was tested, and the pIC50 [1] was 6.22.

IIFFIVLILL showed a pIC50 [1] of 6.70.

FQLIFFLTL was tested, and the pIC50 [3] was 6.45.

TLWAIINTI gave a pIC50 [1] of 8.03.

LVFIKPPLI showed a pIC50 [1] of 7.26.

KIFETIYYGA gave a pIC50 [1] of 6.22.

In the case of ALTNAQFFV, the pIC50 [1] was 8.89.

LLSYYVVYV gave a pIC50 [1] of 9.34.

Sequence ILSLFLISLV has a pIC50 [1] of 8.54.

CTANSWNVI was tested, and the pIC50 [1] was 6.10.

In the case of SIISTFHLSI, the pIC50 [4] was 6.15.

HIIIVALTIM showed a pIC50 [1] of 5.78.

Sequence NTSWNDTVT has a pIC50 [1] of 6.84.

YVSTGESSIL showed a pIC50 [1] of 5.87.

YQMLLALVAL was tested, and the pIC50 [1] was 8.82.

Sequence FVILYLLAV has a pIC50 [1] of 8.11.

Work on TMLSIILVI yielded a pIC50 [1] of 8.85.

With LTNVVNIST the pIC50 [1] was 5.40.

Work on AVNEEWLTAV yielded a pIC50 [1] of 6.41.

For KLFFAKCLV, the pIC50 [1] was 7.64.

FLEGALIANI was tested, and the pIC50 [1] was 7.52.

Work on RVQSFKINI yielded a pIC50 [1] of 6.11.

NISTILYFT showed a pIC50 [1] of 6.89.

Sequence SLSSQMTST has a pIC50 [1] of 5.70.

Work on IILVIIVVI yielded a pIC50 [1] of 6.38.

Work on FIISVISLV yielded a pIC50 [1] of 9.04.

In the case of FTLNHVLAL, the pIC50 [1] was 8.82.

In the case of ALAKNASEL, the pIC50 [1] was 7.14.

VILSPPINA showed a pIC50 [1] of 6.06.

YLLPGFVLT gave a pIC50 [1] of 8.24.

KIFYKHIHKI gave a pIC50 [1] of 6.27.

In the case of IQESFIRFTV, the pIC50 [1] was 7.77.

FTTTSEVVDM gave a pIC50 [1] of 5.72.

RMQRISGSNI was tested, and the pIC50 [1] was 5.36.

Sequence NVDNLIMIV has a pIC50 [1] of 6.77.

FVADRLISEL showed a pIC50 [1] of 5.73.

Work on KLSDVGHQYA yielded a pIC50 [1] of 7.68.

For MISRHCCIL, the pIC50 [1] was 5.99.

SIYECITFL gave a pIC50 [1] of 7.11.

Work on NLNMTDGDSV yielded a pIC50 [1] of 5.36.

TLLCVLPAVV was tested, and the pIC50 [1] was 8.60.

ILSNYVKTL showed a pIC50 [1] of 6.50.

With KTDGIPITI the pIC50 [1] was 7.32.

With FIDILLFVI the pIC50 [1] was 7.85.

KLLKMVTSV was tested, and the pIC50 [1] was 8.92.

Work on PMLYQLLEA yielded a pIC50 [1] of 5.97.

For ALIANIHNHM, the pIC50 [1] was 6.93.

Sequence YIACRTSIV has a pIC50 [2] of 7.34.

With SVNIWAIIPL the pIC50 [1] was 5.95.

QTCAGVIEYA showed a pIC50 [1] of 6.44.

RTMAWTVVNSI gave a pIC50 [5] of 6.19.

With QIAILVTTV the pIC50 [5] was 5.96.

Sequence YLFGGFSTL has a pIC50 [1] of 9.06.

LLNPCLINV showed a pIC50 [1] of 8.47.

Work on SLQSAGFTA yielded a pIC50 [4] of 5.90.

Sequence YLDDHRYLFI has a pIC50 [1] of 7.92.

Sequence DMMSLNLTIV has a pIC50 [1] of 5.55.

For SLDSLVHLL, the pIC50 [1] was 8.48.

Work on LLEIHQYPA yielded a pIC50 [1] of 7.01.

Work on YQDSDVSQEV yielded a pIC50 [1] of 7.92.

Sequence CLVVSTKGDV has a pIC50 [1] of 6.17.

Work on LLEAVYGNI yielded a pIC50 [1] of 6.06.

In the case of LTDKKTFII, the pIC50 [1] was 6.06.

ALVAVSLIA gave a pIC50 (source organism: Mammarenavirus machupoense) of 5.43.

DLLSYYVVYV was tested, and the pIC50 [1] was 9.35.

For LAERFCTEV, the pIC50 [1] was 6.63.

ALIAVSLIA showed a pIC50 [3] of 5.96.

In the case of FTMEWFLSGL, the pIC50 [6] was 7.15.

RISGSNIVI gave a pIC50 [1] of 5.44.

FLIDLAFLI was tested, and the pIC50 [1] was 10.39.

Work on NVFKYLTSV yielded a pIC50 [1] of 9.12.

ILGMLFSDRV was tested, and the pIC50 [1] was 7.77.

KILSASNRL was tested, and the pIC50 [1] was 6.12.

Sequence ALWIPDLFM has a pIC50 [1] of 9.85.

Work on GLFQLIFFL yielded a pIC50 [3] of 9.36.

KLFTDNNFL was tested, and the pIC50 [1] was 8.70.

With YISELYNKPL the pIC50 [1] was 6.20.

MITMSAFLIV was tested, and the pIC50 [1] was 6.41.

For GMANTTFHV, the pIC50 [1] was 9.39.

In the case of VLITMLSIIL, the pIC50 [1] was 6.91.

Work on MITMSAFLI yielded a pIC50 [1] of 6.37.

KIFIDNIYIV showed a pIC50 [1] of 6.28.

With DIIDFLEGA the pIC50 [1] was 6.35.

With AMTAFFGEL the pIC50 [1] was 7.30.

MMMMKWIISI gave a pIC50 [1] of 8.00.

Sequence KVHGLDVKNV has a pIC50 [1] of 5.72.

KQDRSDGYFL was tested, and the pIC50 [1] was 5.41.

FVFSTSFYL showed a pIC50 [4] of 8.60.

In the case of KANCTAESST, the pIC50 [1] was 5.56.

With KLMGTITLNA the pIC50 [1] was 7.92.

VIGLCIRISM gave a pIC50 [1] of 6.13.

WLLCKLSCA gave a pIC50 [1] of 6.82.

FINFFNLLA was tested, and the pIC50 [1] was 6.14.

In the case of IIDKDTNSVT, the pIC50 [1] was 5.55.

Work on YLPKQPEGVI yielded a pIC50 [1] of 6.55.

KIIKKMEDMV showed a pIC50 [1] of 5.57.

Work on LLLETKTILV yielded a pIC50 [1] of 8.48.

With LITLTNVVNI the pIC50 [1] was 5.97.

For FLTSVINRV, the pIC50 [1] was 8.60.

DMIDNLNIV gave a pIC50 [1] of 5.63.

For DMTKVDVEL, the pIC50 [1] was 5.40.

Work on VLEYIYGGKT yielded a pIC50 [1] of 5.84.

With NAPIKTFML the pIC50 [1] was 5.47.

AIIAIVFVFI showed a pIC50 [1] of 6.03.

For KLLLWFNYL, the pIC50 [1] was 8.70.

FLLIRYITT showed a pIC50 [1] of 7.34.

QAKTKNFTI gave a pIC50 [1] of 5.42.

For LMGTITLNA, the pIC50 [1] was 6.76.

For LTSLGLLYTV, the pIC50 [3] was 6.66.

With NTFYLFTFTI the pIC50 [1] was 7.26.

WLYGYNFII gave a pIC50 [1] of 9.72.

For AVVYSTCTV, the pIC50 [1] was 6.98.

With VLYPVIFIT the pIC50 [1] was 8.03.

With RLFSYNFTT the pIC50 [1] was 9.64.

With NASYITPYV the pIC50 [6] was 6.58.

PITDSLSFKL showed a pIC50 [1] of 5.58.

STYWVIPWEL showed a pIC50 [1] of 7.12.

Sequence IVSKLTFLDV has a pIC50 [1] of 7.07.

In the case of KILAIIFLVL, the pIC50 [1] was 6.42.

Work on LMIEYNLLT yielded a pIC50 [1] of 8.82.
